Results: PMC5035230 (Biochimica et biophysica acta, 2016)

Target: the molecule itself
Assay: HDX-MS

Protein	binding result
P453L-hE3 (pathogenic variant of human dihydrolipoamide dehydrogenase) (enzyme, UniProt P09622 36-509, looked up) ADQPIDADVTVIGSGPGGYVAAIKAAQLGFKTVCIEKNETLGGTCLNVGCIPSKALLNNSHYYHMAHGKDFASRGIEMSEVRLNLDKMMEQKSTAVKALTGGIAHLFKQNKVVHVNGYGKITGKNQVTATKADGGTQVIDTKNILIATGSEVTPFPGITIDEDTIVSSTGALSLKKVPEKMVVIGAGVIGVELGSVWQRLGADVTAVEFLGHVGGVGIDMEISKNFQRILQKQGFKFKLNTKVTGATKKSDGKIDVSIEAASGGKAEVITCDVLLVCIGRRPFTKNLGLEELGIELDPRGRIPVNTRFQTKIPNIYAIGDVVAGPMLAHKAEDEGIICVEGMAGGAVHIDYNCVPSVIYTHPEVAWVGKSEEQLKEEGIEYKVGKFPFAANSRAKTNADTDGMVKILGQKSTDRVLGAHILGPGAGEMVNEAALALEYGASCEDIARVCHAHLTLSEAFREANLAASFGKSINF	binds
R460G-hE3 (pathogenic variant of human dihydrolipoamide dehydrogenase) (enzyme, UniProt P09622 36-509, looked up) ADQPIDADVTVIGSGPGGYVAAIKAAQLGFKTVCIEKNETLGGTCLNVGCIPSKALLNNSHYYHMAHGKDFASRGIEMSEVRLNLDKMMEQKSTAVKALTGGIAHLFKQNKVVHVNGYGKITGKNQVTATKADGGTQVIDTKNILIATGSEVTPFPGITIDEDTIVSSTGALSLKKVPEKMVVIGAGVIGVELGSVWQRLGADVTAVEFLGHVGGVGIDMEISKNFQRILQKQGFKFKLNTKVTGATKKSDGKIDVSIEAASGGKAEVITCDVLLVCIGRRPFTKNLGLEELGIELDPRGRIPVNTRFQTKIPNIYAIGDVVAGPMLAHKAEDEGIICVEGMAGGAVHIDYNCVPSVIYTHPEVAWVGKSEEQLKEEGIEYKVGKFPFAANSRAKTNADTDGMVKILGQKSTDRVLGAHILGPGAGEMVNEAALALEYGASCEDIARVCHAHPTLSEAFGEANLAASFGKSINF	binds
K37E-hE3 (pathogenic variant of human dihydrolipoamide dehydrogenase) (enzyme, UniProt P09622 36-509, looked up) ADQPIDADVTVIGSGPGGYVAAIKAAQLGFKTVCIEENETLGGTCLNVGCIPSKALLNNSHYYHMAHGKDFASRGIEMSEVRLNLDKMMEQKSTAVKALTGGIAHLFKQNKVVHVNGYGKITGKNQVTATKADGGTQVIDTKNILIATGSEVTPFPGITIDEDTIVSSTGALSLKKVPEKMVVIGAGVIGVELGSVWQRLGADVTAVEFLGHVGGVGIDMEISKNFQRILQKQGFKFKLNTKVTGATKKSDGKIDVSIEAASGGKAEVITCDVLLVCIGRRPFTKNLGLEELGIELDPRGRIPVNTRFQTKIPNIYAIGDVVAGPMLAHKAEDEGIICVEGMAGGAVHIDYNCVPSVIYTHPEVAWVGKSEEQLKEEGIEYKVGKFPFAANSRAKTNADTDGMVKILGQKSTDRVLGAHILGPGAGEMVNEAALALEYGASCEDIARVCHAHPTLSEAFREANLAASFGKSINF	binds
G194C-hE3 (pathogenic variant of human dihydrolipoamide dehydrogenase) (enzyme, UniProt P09622 36-509, looked up) ADQPIDADVTVIGSGPGGYVAAIKAAQLGFKTVCIEKNETLGGTCLNVGCIPSKALLNNSHYYHMAHGKDFASRGIEMSEVRLNLDKMMEQKSTAVKALTGGIAHLFKQNKVVHVNGYGKITGKNQVTATKADGGTQVIDTKNILIATGSEVTPFPGITIDEDTIVSSTGALSLKKVPEKMVVIGAGVIGVELCSVWQRLGADVTAVEFLGHVGGVGIDMEISKNFQRILQKQGFKFKLNTKVTGATKKSDGKIDVSIEAASGGKAEVITCDVLLVCIGRRPFTKNLGLEELGIELDPRGRIPVNTRFQTKIPNIYAIGDVVAGPMLAHKAEDEGIICVEGMAGGAVHIDYNCVPSVIYTHPEVAWVGKSEEQLKEEGIEYKVGKFPFAANSRAKTNADTDGMVKILGQKSTDRVLGAHILGPGAGEMVNEAALALEYGASCEDIARVCHAHPTLSEAFREANLAASFGKSINF	binds
I318T-hE3 (pathogenic variant of human dihydrolipoamide dehydrogenase) (enzyme, UniProt P09622 36-509, looked up) ADQPIDADVTVIGSGPGGYVAAIKAAQLGFKTVCIEKNETLGGTCLNVGCIPSKALLNNSHYYHMAHGKDFASRGIEMSEVRLNLDKMMEQKSTAVKALTGGIAHLFKQNKVVHVNGYGKITGKNQVTATKADGGTQVIDTKNILIATGSEVTPFPGITIDEDTIVSSTGALSLKKVPEKMVVIGAGVIGVELGSVWQRLGADVTAVEFLGHVGGVGIDMEISKNFQRILQKQGFKFKLNTKVTGATKKSDGKIDVSIEAASGGKAEVITCDVLLVCIGRRPFTKNLGLEELGIELDPRGRIPVNTRFQTKIPNIYATGDVVAGPMLAHKAEDEGIICVEGMAGGAVHIDYNCVPSVIYTHPEVAWVGKSEEQLKEEGIEYKVGKFPFAANSRAKTNADTDGMVKILGQKSTDRVLGAHILGPGAGEMVNEAALALEYGASCEDIARVCHAHPTLSEAFREANLAASFGKSINF	binds
E340K-hE3 (pathogenic variant of human dihydrolipoamide dehydrogenase) (enzyme, UniProt P09622 36-509, looked up) ADQPIDADVTVIGSGPGGYVAAIKAAQLGFKTVCIEKNETLGGTCLNVGCIPSKALLNNSHYYHMAHGKDFASRGIEMSEVRLNLDKMMEQKSTAVKALTGGIAHLFKQNKVVHVNGYGKITGKNQVTATKADGGTQVIDTKNILIATGSEVTPFPGITIDEDTIVSSTGALSLKKVPEKMVVIGAGVIGVELGSVWQRLGADVTAVEFLGHVGGVGIDMEISKNFQRILQKQGFKFKLNTKVTGATKKSDGKIDVSIEAASGGKAEVITCDVLLVCIGRRPFTKNLGLEELGIELDPRGRIPVNTRFQTKIPNIYAIGDVVAGPMLAHKAEDEGIICVKGMAGGAVHIDYNCVPSVIYTHPEVAWVGKSEEQLKEEGIEYKVGKFPFAANSRAKTNADTDGMVKILGQKSTDRVLGAHILGPGAGEMVNEAALALEYGASCEDIARVCHAHPTLSEAFREANLAASFGKSINF	binds
I358T-hE3 (pathogenic variant of human dihydrolipoamide dehydrogenase) (enzyme, UniProt P09622 36-509, looked up) ADQPIDADVTVIGSGPGGYVAAIKAAQLGFKTVCIEKNETLGGTCLNVGCIPSKALLNNSHYYHMAHGKDFASRGIEMSEVRLNLDKMMEQKSTAVKALTGGIAHLFKQNKVVHVNGYGKITGKNQVTATKADGGTQVIDTKNILIATGSEVTPFPGITIDEDTIVSSTGALSLKKVPEKMVVIGAGVIGVELGSVWQRLGADVTAVEFLGHVGGVGIDMEISKNFQRILQKQGFKFKLNTKVTGATKKSDGKIDVSIEAASGGKAEVITCDVLLVCIGRRPFTKNLGLEELGIELDPRGRIPVNTRFQTKIPNIYAIGDVVAGPMLAHKAEDEGIICVEGMAGGAVHIDYNCVPSVTYTHPEVAWVGKSEEQLKEEGIEYKVGKFPFAANSRAKTNADTDGMVKILGQKSTDRVLGAHILGPGAGEMVNEAALALEYGASCEDIARVCHAHPTLSEAFREANLAASFGKSINF	binds
D444V-hE3 (pathogenic variant of human dihydrolipoamide dehydrogenase) (enzyme, UniProt P09622 36-509, looked up) ADQPIDADVTVIGSGPGGYVAAIKAAQLGFKTVCIEKNETLGGTCLNVGCIPSKALLNNSHYYHMAHGKDFASRGIEMSEVRLNLDKMMEQKSTAVKALTGGIAHLFKQNKVVHVNGYGKITGKNQVTATKADGGTQVIDTKNILIATGSEVTPFPGITIDEDTIVSSTGALSLKKVPEKMVVIGAGVIGVELGSVWQRLGADVTAVEFLGHVGGVGIDMEISKNFQRILQKQGFKFKLNTKVTGATKKSDGKIDVSIEAASGGKAEVITCDVLLVCIGRRPFTKNLGLEELGIELDPRGRIPVNTRFQTKIPNIYAIGDVVAGPMLAHKAEDEGIICVEGMAGGAVHIDYNCVPSVIYTHPEVAWVGKSEEQLKEEGIEYKVGKFPFAANSRAKTNADTDGMVKILGQKSTDRVLGAHILGPGAGEMVNEAALALEYGASCEVIARVCHAHPTLSEAFREANLAASFGKSINF	binds
I445M-hE3 (pathogenic variant of human dihydrolipoamide dehydrogenase) (enzyme, UniProt P09622 36-509, looked up) ADQPIDADVTVIGSGPGGYVAAIKAAQLGFKTVCIEKNETLGGTCLNVGCIPSKALLNNSHYYHMAHGKDFASRGIEMSEVRLNLDKMMEQKSTAVKALTGGIAHLFKQNKVVHVNGYGKITGKNQVTATKADGGTQVIDTKNILIATGSEVTPFPGITIDEDTIVSSTGALSLKKVPEKMVVIGAGVIGVELGSVWQRLGADVTAVEFLGHVGGVGIDMEISKNFQRILQKQGFKFKLNTKVTGATKKSDGKIDVSIEAASGGKAEVITCDVLLVCIGRRPFTKNLGLEELGIELDPRGRIPVNTRFQTKIPNIYAIGDVVAGPMLAHKAEDEGIICVEGMAGGAVHIDYNCVPSVIYTHPEVAWVGKSEEQLKEEGIEYKVGKFPFAANSRAKTNADTDGMVKILGQKSTDRVLGAHILGPGAGEMVNEAALALEYGASCEDMARVCHAHPTLSEAFREANLAASFGKSINF	binds
R447G-hE3 (pathogenic variant of human dihydrolipoamide dehydrogenase) (enzyme, UniProt P09622 36-509, looked up) ADQPIDADVTVIGSGPGGYVAAIKAAQLGFKTVCIEKNETLGGTCLNVGCIPSKALLNNSHYYHMAHGKDFASRGIEMSEVRLNLDKMMEQKSTAVKALTGGIAHLFKQNKVVHVNGYGKITGKNQVTATKADGGTQVIDTKNILIATGSEVTPFPGITIDEDTIVSSTGALSLKKVPEKMVVIGAGVIGVELGSVWQRLGADVTAVEFLGHVGGVGIDMEISKNFQRILQKQGFKFKLNTKVTGATKKSDGKIDVSIEAASGGKAEVITCDVLLVCIGRRPFTKNLGLEELGIELDPRGRIPVNTRFQTKIPNIYAIGDVVAGPMLAHKAEDEGIICVEGMAGGAVHIDYNCVPSVIYTHPEVAWVGKSEEQLKEEGIEYKVGKFPFAANSRAKTNADTDGMVKILGQKSTDRVLGAHILGPGAGEMVNEAALALEYGASCEDIAGVCHAHPTLSEAFREANLAASFGKSINF	binds
